The values that follow come from patent US20250163183A1 (COAGULANT THERAPEUTICS, published 2025).

One assay addresses T1, FXIa (UniProt P03951 19-625).
T1 construct: also called factor XIa
Nature of the assay: ELISA, FXIa coated at 10 µg/mL, HRP-anti-V5, n=3.

Assay [1] deals with T2, human activated protein C (APC) (human, UniProt P04070 43-461). The experiment in a line: cell-based or functional assay.
Assay [2] addresses T2, human activated protein C (APC). Nature of the assay: BLI (Octet): nanobody captured on anti-V5 sensor, dipped in 500 nM APC; buffer sensor reads 0.06. For orientation: BLI is a label-free optical method that tracks binding on a fibre tip over time.
Assay [3] shares this target. Nature of the assay: BLI, VHH captured via anti-V5, APC in solution.
A further assay has as its target T3, FVIIa (UniProt P08709 61-466).
T3 construct: also called factor VIIa
T3 sequence (looked up): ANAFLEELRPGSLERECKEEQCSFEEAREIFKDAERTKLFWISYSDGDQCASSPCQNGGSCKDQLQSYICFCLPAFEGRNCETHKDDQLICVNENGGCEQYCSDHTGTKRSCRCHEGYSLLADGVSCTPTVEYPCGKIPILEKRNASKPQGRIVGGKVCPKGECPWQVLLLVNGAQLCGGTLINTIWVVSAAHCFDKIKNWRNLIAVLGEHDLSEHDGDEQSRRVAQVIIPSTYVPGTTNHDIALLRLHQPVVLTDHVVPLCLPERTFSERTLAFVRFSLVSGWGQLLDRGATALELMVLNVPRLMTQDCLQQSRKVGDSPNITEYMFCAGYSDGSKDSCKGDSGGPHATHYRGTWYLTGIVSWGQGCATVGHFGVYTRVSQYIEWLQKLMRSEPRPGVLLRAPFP
Nature of the assay: ELISA, FVIIa coated at 10 µg/mL, HRP-anti-V5, n=3.

Assay [4] addresses T4, human protein C (PC) zymogen (human, UniProt P04070 43-197; P04070 200-461).
T4 construct: Bought
Nature of the assay: ELISA screen, PC-coated wells, OD450, n=2 [Continued].

In assay [5] the target is T2, human activated protein C (APC). Nature of the assay: cell-based or functional assay. The source holds these as a separate data set.
The target in assay [6] is T4, human protein C (PC) zymogen. Nature of the assay: ELISA.
Assay [7] shares this target. The experiment in a line: ELISA screen, PC-coated wells, OD450, n=2.

Values joined by “and” are separate entries in the source; they are usually repeats but may differ in a detail not shown here. Equal values may be shown once.

T2 sequence (P04070 other isoform, or with tags, fused parts or gaps): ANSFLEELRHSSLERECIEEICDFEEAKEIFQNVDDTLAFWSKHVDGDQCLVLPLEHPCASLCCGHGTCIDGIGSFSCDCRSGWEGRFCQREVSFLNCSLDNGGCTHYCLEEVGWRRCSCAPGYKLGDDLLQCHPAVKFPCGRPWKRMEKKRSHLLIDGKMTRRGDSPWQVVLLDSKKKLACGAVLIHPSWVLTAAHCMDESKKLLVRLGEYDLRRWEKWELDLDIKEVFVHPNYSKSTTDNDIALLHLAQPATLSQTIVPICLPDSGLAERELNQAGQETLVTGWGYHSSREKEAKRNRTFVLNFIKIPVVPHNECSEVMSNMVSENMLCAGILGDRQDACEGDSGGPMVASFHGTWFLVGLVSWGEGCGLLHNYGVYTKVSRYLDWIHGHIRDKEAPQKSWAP
T1 sequence (P03951 19-625 limits assumed): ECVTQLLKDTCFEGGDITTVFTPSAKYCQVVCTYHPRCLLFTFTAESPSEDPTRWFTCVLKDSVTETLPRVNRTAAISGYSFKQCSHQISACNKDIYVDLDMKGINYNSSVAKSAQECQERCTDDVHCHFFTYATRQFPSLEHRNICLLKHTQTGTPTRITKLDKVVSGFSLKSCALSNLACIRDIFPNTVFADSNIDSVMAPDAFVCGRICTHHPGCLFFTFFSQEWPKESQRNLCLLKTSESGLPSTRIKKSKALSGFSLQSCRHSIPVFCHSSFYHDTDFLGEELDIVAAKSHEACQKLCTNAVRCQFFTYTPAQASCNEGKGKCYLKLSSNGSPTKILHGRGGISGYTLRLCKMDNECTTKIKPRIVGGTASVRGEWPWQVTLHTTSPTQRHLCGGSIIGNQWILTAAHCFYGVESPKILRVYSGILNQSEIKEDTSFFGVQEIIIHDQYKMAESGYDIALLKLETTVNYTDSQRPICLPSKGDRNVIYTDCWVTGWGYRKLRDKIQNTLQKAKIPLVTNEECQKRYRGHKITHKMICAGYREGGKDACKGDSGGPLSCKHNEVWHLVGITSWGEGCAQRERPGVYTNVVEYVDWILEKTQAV
T4 sequence (P04070 43-197, chain 1 of 2): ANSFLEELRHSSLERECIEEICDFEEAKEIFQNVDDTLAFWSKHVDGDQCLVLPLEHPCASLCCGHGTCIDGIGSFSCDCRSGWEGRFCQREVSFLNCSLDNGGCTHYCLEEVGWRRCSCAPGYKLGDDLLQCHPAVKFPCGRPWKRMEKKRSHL
T4 sequence (P04070 200-461, chain 2 of 2): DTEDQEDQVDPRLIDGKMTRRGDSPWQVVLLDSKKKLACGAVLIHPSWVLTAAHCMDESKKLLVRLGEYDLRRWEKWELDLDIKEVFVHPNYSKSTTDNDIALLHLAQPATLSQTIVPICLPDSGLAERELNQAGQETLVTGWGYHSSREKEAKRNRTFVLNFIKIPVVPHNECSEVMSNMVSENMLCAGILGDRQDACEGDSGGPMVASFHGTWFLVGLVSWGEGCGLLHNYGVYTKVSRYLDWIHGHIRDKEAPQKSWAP

B1: LP4 (SR16983-R3-P2-A06) (VHH, not shown: small tags and cut ends)
VHH: QLQLVESGGGLVQAGGSLRLSCAASGSTFNFRIMGWYRQVPGKQRELVAVINSGGSADYTEDVKGRFTISRDDAKSTMYLQMNSLKPEDTAVYYCHAKKVEPTLFTTTYWGQGTQVTVSS
notes: Llama VHH purified from E. coli periplasm
With B1, in the assay with FXIa, the binding result is recorded as “no binding (tested: 2 µg/mL)”. Further, the “APC plasma T1/2 (min; mean)” value in assay [1] came to 33 min. The “APC binding (nm)” value in assay [2] is 0.33 nm. In [3], the Kd turned out to be 4.4 nM, the koff was determined as 0.0027 s⁻¹ and the kon came out at 550000 M⁻¹ s⁻¹. In addition, the binding result with FVIIa is given as “no binding (tested: 2 µg/mL)”. Besides, the binding result in assay [4] is “no binding”.

B2: LP3 (SR16983-R2-P4-E09) (VHH, not shown: small tags and cut ends)
VHH: QVQLVESGGGLVQPGGSLTLSCAASGTIESINDMGWYRQAPGKQRELVAAITSGGSTNYADSVKGRFTISRDNAKNTVYLQMNSLKPEDTAVYYCNAEVKRHYYYDSAGYRYWGQGTQVTVSS
notes: as for B1
In the case of B2, in the assay with FXIa, the binding result is recorded as “no binding (tested: 2 µg/mL)”. Further, the “APC plasma T1/2 (min; mean)” value in assay [1] was determined as 28.8 min. Further, the “APC binding (nm)” value in [2] was found to be 0.29 nm. Besides, in assay [3], the Kd was determined as 8.8 nM, the koff amounted to 0.0016 s⁻¹ and the kon is 180000 M⁻¹ s⁻¹. For the same molecule, the binding result with FVIIa is “no binding (tested: 2 µg/mL)”. For the same molecule, in [4], the binding result was “no binding”.

B3: LP21 (SR16983-R4-P1-D01) (VHH, not shown: small tags and cut ends)
VHH: QLQLVESGGGLVQAGESLRLSCVLSGSTFGRNVITWYRQPPGKQREFIAMITTSGSTRYADSVKGRFTMSRDTAKNTAFLQMSNLKLEDTAVYYCWTAIAGQGEYWGQGTQVTVSS
notes: as for B1
For the molecule B3, the binding result in the assay with FXIa and with FVIIa was “no binding (tested: 2 µg/mL)” in each case.

B4: LP13 (SR16983-R3-P3-G08) (VHH, not shown: small tags and cut ends)
VHH: QLQLVESGGGLVQAGGSLRLSCVASGTTFTIEDIGWHRQAPGKQLELVAVSRGGGNADYSDSVKGRFTISRDNAKTTVYLQMSSLKPEDTAVYYCIAKTKATTKWGRGIQVTVSS
notes: as for B1
Regarding B4, in the assay with FXIa, the binding result is reported as “no binding (tested: 2 µg/mL)”. For the same molecule, in [1], the “APC plasma T1/2 (min; mean)” value came to 67.1 min. In addition, the “APC binding (nm)” value in assay [2] stood at 0.32 nm. In assay [3], this molecule gave a Kd of 1.2 nM, a koff of 0.00041 s⁻¹ and a kon of 350000 M⁻¹ s⁻¹. In addition, the “APC-mediated histone H3 cleavage, 500 nM nanobody” value (from here on “APC-mediated histone H3 cleavage”) in assay [5] is below 75 % residual activity. In the assay with FVIIa, the binding result is “no binding (tested: 2 µg/mL)”. For the same molecule, in [4], the binding result was “no binding”.

B5: LP16 (SR16983-R4-P1-A04) (VHH, not shown: small tags and cut ends)
VHH: QLQLVESGGGLVEAGGSLRLSCAVSGTTFSANTMVWHRQAPGKQREWVARISSSGTTNYADSVRGRFSLSRGNAKNTVYLQMNSLKPDDTAVYYCNAILPSRSIWGRGTQVTVSS
notes: as for B1
For the molecule B5, the binding result in the assay with FXIa and in the assay with FVIIa was “no binding (tested: 2 µg/mL)” throughout.

B6: LP5 (SR16983-R3-P2-F04) (VHH, not shown: small tags and cut ends)
VHH: QVQLVESGGGLVQHGGSLRLSCAVSGSIFTTATMAWYRQAPGKQRDWVAVITTGGSTRYADDVKGRFAISRDNAKNTVYLQMNNLKPEDTAVYYCNAATRLSSTNYWGQGTQVSVSS
notes: as for B1
For the molecule B6, the binding result with FXIa and with FVIIa was “no binding (tested: 2 µg/mL)” each time.

B7: LP1 (SR16983-R2-P3-D06) (VHH, not shown: small tags and cut ends)
VHH: QLQLVESGGGLVQAGGSLRLSCAASGSTFPINVFAWYRQAPGEQRELGELVAFIGRSGTTNYGDSVKGRFTISRDNAKNTVYLQMDSLRPEDTAVYYCNLGDYWGQGTQVTVSS
notes: as for B1
B7: the “APC binding (nm)” value in assay [2] worked out at 0.32 nm. For the same molecule, in [3], binding was characterised by a dissociation constant (Kd) of 15 nM, the koff is 0.009 s⁻¹ and the kon came to 590000 M⁻¹ s⁻¹. In addition, in [5], the “APC-mediated histone H3 cleavage” value is below 75 % residual activity.

B8: LP11 (SR16983-R3-P3-F03) (VHH, not shown: small tags and cut ends)
VHH: QLQLVESGGGLAQAGGSLRLSCAASGRTFVGSYVMGWFRQAPGKEREFVAASSRSTGNTVYLDSVKGRFTISRDDAKNTLFLQMNRLKPEDTAVYYCATRASVNYNYAAWPYWGQGTQVTVSS
notes: Llama VHH purified from E. coli periplasm; also made in CHO cells for the endothelial barrier assay
For B8, in the assay with FXIa, the binding result is given as “no binding (tested: 2 µg/mL)”. Further, the “APC plasma T1/2 (min; mean)” value in [1] is 25 min. Besides, in assay [2], the “APC binding (nm)” value stood at 0.3 nm. Moreover, in assay [3], binding was characterised by a dissociation constant (Kd) of 2.1 nM, the koff came out at 0.00069 s⁻¹ and the kon was 330000 M⁻¹ s⁻¹. Also, in [5], the “Protac-APTT clotting time, 300 nM nanobody” value is above 90%; the “R46/R41 cleavage ratio of PAR1 by APC” value is > 1 ratio and ≤ 2.5 fold. Moreover, the binding result with FVIIa is reported as “no binding (tested: 2 µg/mL)”. For the same molecule, the binding result in assay [4] is “no binding”.

B9: LP6 (SR16983-R3-P2-F11) (VHH, not shown: small tags and cut ends)
VHH: QLQLVESGGGLVQPGGSLRLSCAASGSIGRLNVMGWFRQAPGKQRELVAVISSDNKKDYADSVQGRFTISRDNSKNTVYLQMNSLKPEDTAVYYCNVRWTMGGNYWGQGTQVTVSS
notes: as for B1
For B9, the binding result with FXIa and in the assay with FVIIa was “no binding (tested: 2 µg/mL)” in each case.

B10: LP17 (SR16983-R4-P1-A09) (VHH, not shown: small tags and cut ends)
VHH: QLQLVESGGGLVQPGGSLRLSCAASGTTSSLNLMGWYRQAPGKKRESVAHMTSDGRTDYVDSVKGRFTISRDNSKNTVYLQMNNLKPEDTAVYICYANPFLGSWSNYWGQGTQVTVSS
notes: as for B1
Take B10: the binding result with FXIa and with FVIIa was “no binding (tested: 2 µg/mL)” in each case.

B11: LP15 (SR16983-R3-P5-H05) (VHH, not shown: small tags and cut ends)
VHH: QLQLVESGGGLVQAGGSLRLSCAASGTTFSFVYMGWYRQAPGNQRDLVARISSDGSTNYADSVKGRFTISGDNAKNTVYLQMNSLKPEDTARYYCFWNGHTNKWGQGTQVTVSS
notes: as for B1
As to B11, the binding result with FXIa was “no binding (tested: 2 µg/mL)”. Further, the “APC plasma T1/2 (min; mean)” value in assay [1] stood at 36.4 min. Besides, in assay [6], the binding result was “no binding”. Besides, the “APC binding (nm)” value in [2] is 0.31 nm. Moreover, in assay [3], the Kd worked out at 16 nM, the koff is 0.0066 s⁻¹ and the kon is 400000 M⁻¹ s⁻¹. The binding result with FVIIa is on record as “no binding (tested: 2 µg/mL)”.

B12: LP19 (SR16983-R4-P1-B06) (VHH, not shown: small tags and cut ends)
VHH: QLQLVESGGGEVQAGESLRLSCAASGSTFSINVFAWYRDYPGKQRELVAVIGRSGTPRYADSVKGRFTISRDNAKNTVYLQMNSLEPEDTAVYYCHLGDTWGQGTQVTVSS
notes: as for B1
Turning to B12, the binding result with FXIa is given as “no binding (tested: 2 µg/mL)”. Also, the “APC binding (nm)” value in [2] is 0.31 nm. In assay [3], this molecule registered a Kd of 6.1 nM, a koff of 0.0025 s⁻¹ and a kon of 410000 M⁻¹ s⁻¹. Moreover, the binding result in assay [7] is recorded as “no binding”. Further, the “APC-mediated histone H3 cleavage” value in assay [5] was below 75 % residual activity. Also, the binding result with FVIIa is “no binding (tested: 2 µg/mL)”.

B13: LP14 (SR16983-R3-P4-A06) (VHH, not shown: small tags and cut ends)
VHH: QLQLVESGGGLVQAGGSLRLSCTASGSTSSIVIISWYRQAPGEQRDLVATINNGGDVDVADFVKGRFTISRDNAKNAVYLQMNNLKPEDTAVYYCSARTPSLRVTWFWGQGTQVTVSS
notes: as for B1
B13: the binding result with FXIa and with FVIIa was “no binding (tested: 2 µg/mL)” each time.

As a reminder, the Kd is a measure of binding affinity in units of concentration. Broadly, the koff is the rate constant with which the complex falls apart. Read a low koff as slow dissociation. Broadly, the kon is the rate constant with which the complex forms. Read a high kon as faster complex formation.
